Assay results as given in US11306331B2, “Processes for the production of hydroxycinnamic acids using polypeptides having tyrosine ammonia lyase activity” (CysBio ApS, priority 2014, dated 2022).

T1: Saccharothrix espanaensis SeSam8 (Protein GI 433607630), His-tagged (N-terminal tag SEQ ID NO: 11) (Saccharothrix espanaensis, UniProt Q2EYY5)
T1 sequence (Q2EYY5 1-510): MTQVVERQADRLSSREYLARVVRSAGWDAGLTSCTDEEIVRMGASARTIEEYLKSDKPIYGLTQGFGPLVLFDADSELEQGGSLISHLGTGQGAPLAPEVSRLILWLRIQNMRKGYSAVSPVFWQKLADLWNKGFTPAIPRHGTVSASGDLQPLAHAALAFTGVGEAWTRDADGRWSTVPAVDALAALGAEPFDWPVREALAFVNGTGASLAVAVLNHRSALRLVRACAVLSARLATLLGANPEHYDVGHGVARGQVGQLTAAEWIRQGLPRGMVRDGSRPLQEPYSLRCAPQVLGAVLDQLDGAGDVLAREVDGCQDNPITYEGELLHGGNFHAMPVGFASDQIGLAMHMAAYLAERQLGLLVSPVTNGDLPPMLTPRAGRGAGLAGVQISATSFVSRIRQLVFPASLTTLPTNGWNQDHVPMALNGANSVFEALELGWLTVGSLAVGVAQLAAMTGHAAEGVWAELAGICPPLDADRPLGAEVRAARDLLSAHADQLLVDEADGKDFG


Assays:
[1] = target: T1, Saccharothrix espanaensis SeSam8 (Protein GI 433607630), His-tagged (N-terminal tag SEQ ID NO: 11); test: In vitro kinetics of purified His-tagged SeSam8 (tyrosine/phenylalanine ammonia lyase activity, absorbance at 315/295 nm); type: biochemical
From the text: Four of the enzymes were further purified by His-tag purification as follows. A DNA linker (5′ phosphorylated oligonucleotides CBJP559 and CBJP560, Table 5) was inserted in place of the sequence between the NdeI and BgIII site in plasmid pCDFDuet-1. This would result in the addition of the amino acids MAHHHHHHENLYFQ (SEQ ID NO: 11) to the N-terminal end of the polypeptides. The resulting plasmid was amplified with primers CBJP575 and CBJP576 (table 5) and the genes were amplified and combined using the Gibson reaction (New England Biolabs). The PCR amplification used the same reverse primers as in example 1, but the forward primers matching the His-tag site of the linker (Table 5). Plasmids carrying the genes (e.g. FjXAL, FIG. 4) were transformed into electrocompetent E. coli BL21(DE3)pLysS cells (Life Technologies) and selected on LB plates containing 50 ug/mL streptomycin.
Strains expressing His-tagged versions of the enzymes were grown in LB media overnight at 37° C. and diluted into fresh LB media with 1 mM IPTG and growth was propagated overnight (approximately 18 h) at 30° C. […]
Enzymatic assays were performed in 200 μL volumes in wells in a UV transparent 96-well plate, by following the increase in absorbance at 315 nm (pHCA) or 295 nm (CA). […] The enzymatic activity was calculated as U/g, where U is defined as μmol substrate converted per minute.

[2] = tested on: E. coli BL21(DE3)pLysS cells; test: Titers of hydroxycinnamic acids in supernatants of E. coli cultures expressing TAL homologs; type: cell-based, Escherichia coli; conditions: 16 hours, 37° C., duplicate
Procedure: E. coli strains described in Example 1 were used. M9 medium with 0.2% glucose and 0.5 mM IPTG also containing either tyrosine (204 μM), L-dopa (194 μM) or 3-O-methyldopa (262 μM) was transferred as 3-mL aliquots into a 24-well deep-well plate (Enzyscreen). Aliquots were taken for HPLC before the wells were inoculated with 200 μL of overnight cultures of the strains. The plates were placed at 37° C. with shaking for 16 hours. Samples of the supernatant were withdrawn after two rounds of centrifugation. The samples were subjected to HPLC along with chemical standards as described in Example 1. p-coumaric acid, caffeic acid and ferulic acid was measured by absorbance at 333 nm. Tyrosine, L-dopa and 3-O-methyldopa were measured by fluorescence (excitation at 274 nm, emission at 303 nm).
There was no measurable product in the medium before inoculation.

Row | Molecule | Kcat ([1]; 30° C, 1.56 μM to 200 μM tyrosine or 193 μM to 25 mM phenylalanine) | TAL/PAL ([1]; ratio of Kcat/Km for Tyr over Phe) | Titer of ferulic acid ([2]; M9 + 3-O-methyldopa (262 μM)) | Titer of caffeic acid ([2]; M9 + L-dopa (194 μM)) | Titer of p-coumaric acid ([2]; M9 + tyrosine (204 μM))
1 | N[C@@H](Cc1ccc(O)cc1)C(=O)O [Tyr, tyrosine] | 0.014 s⁻¹ | 730 |  |  | 
2 | Flavobacterium johnsoniae FjXAL tyrosine ammonia lyase (Protein GI 146298870), SEQ ID NO: 1, His-tagged (N-terminal tag SEQ ID NO: 11) (Flavobacterium … (protein) MNTINEYLSLEEFEAIIFGNQKVTISDVVVNRVNESFNFLKEFSGNKVIYGVNTGFGPMAQYRIKESDQIQLQYNLIRSHSSGTGKPLSPVCAKAAILARLNTLSLGNSGVHPSVINLMSELINKDITPLIFEHGGVGASGDLVQLSHLALVLIGEGEVFYKGERRPTPEVFEIEGLKPIQVEIREGLALINGTSVMTGIGVVNVYHAKKLLDWSLKSSCAINELVQAYDDHFSAELNQTKRHKGQQEIALKMRQNLSDSTLIRKREDHLYSGENTEEIFKEKVQEYYSLRCVPQILGPVLETINNVASILEDEFNSANDNPIIDVKNQHVYHGGNFHGDYISLEMDKLKIVITKLTMLAERQLNYLLNSKINELLPPFVNLGTLGFNFGMQGVQFTATSTTAESQMLSNPMYVHSIPNNNDNQDIVSMGTNSAVITSKVIENAFEVLAIEMITIVQAIDYLGQKDKISSVSKKWYDEIRNIIPTFKEDQVMYPFVQKVKDHLINN |  |  | 1.1 ± 0.3 µM | 5.7 ± 1.0 µM | 215 ± 11.1 µM
